# Measurements as given in US20140127211A1 (Pfizer, published 2014).
# T1: human Notch3 NRR recombinant protein (Notch3 NRR_Avi_His tag) (human)
# T1 construct: Purified from CHO-PACE cells; the entry includes the C-terminal Avi and His6 tag
# T1 chain: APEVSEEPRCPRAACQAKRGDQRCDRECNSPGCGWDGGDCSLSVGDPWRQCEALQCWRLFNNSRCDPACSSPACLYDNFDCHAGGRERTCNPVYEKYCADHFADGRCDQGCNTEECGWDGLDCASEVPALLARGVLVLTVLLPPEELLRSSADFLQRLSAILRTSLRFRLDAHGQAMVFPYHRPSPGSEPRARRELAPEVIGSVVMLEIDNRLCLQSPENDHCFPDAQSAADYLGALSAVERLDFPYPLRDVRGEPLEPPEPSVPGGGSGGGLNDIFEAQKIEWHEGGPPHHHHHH
# T2: human Notch1 NRR-Fc (human, UniProt P46531 1446-1733, limits assumed)
# T2 construct: domain: NRR region; Made in CHO-PACE cells; not shown: human IgG1 Fc fragment
# T2 sequence (looked up): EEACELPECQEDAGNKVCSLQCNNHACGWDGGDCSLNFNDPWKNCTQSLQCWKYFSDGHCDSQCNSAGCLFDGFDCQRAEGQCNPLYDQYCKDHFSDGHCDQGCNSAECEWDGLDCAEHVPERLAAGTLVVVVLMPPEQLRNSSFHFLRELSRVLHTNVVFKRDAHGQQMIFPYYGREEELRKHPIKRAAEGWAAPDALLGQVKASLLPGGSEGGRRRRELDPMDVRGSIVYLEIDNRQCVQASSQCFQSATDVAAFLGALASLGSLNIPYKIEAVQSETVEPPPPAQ
# T3: mouse Notch3 NRR recombinant protein (Notch3 NRR_Avi_His tag) (mouse)
# T3 construct: The entry includes the C-terminal Avi and His tag; S1-cleaved heterodimer as for the human protein
# T3 chain: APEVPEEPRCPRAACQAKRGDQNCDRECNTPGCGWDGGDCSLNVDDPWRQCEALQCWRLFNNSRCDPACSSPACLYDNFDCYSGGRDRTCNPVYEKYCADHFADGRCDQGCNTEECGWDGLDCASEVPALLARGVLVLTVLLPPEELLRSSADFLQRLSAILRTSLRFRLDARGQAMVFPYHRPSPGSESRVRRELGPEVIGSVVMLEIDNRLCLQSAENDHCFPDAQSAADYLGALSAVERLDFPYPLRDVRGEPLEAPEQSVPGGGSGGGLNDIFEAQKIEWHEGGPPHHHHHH
# B1: hu28-vc6780 (Notch3-28-v1010-hG1-(C)_mcValCitPABC-#112) (antibody, human IgG1, kappa, V domains shown)
# VH: EVQLVESGGGLVQPGGSLRLSCAASGFTFRDYGMTWVRQAPGKGLEWVAYISSGSNYIYYAEAVKGRFTISRDNAKNSLYLQMNSLRAEDTAVYYCARRGPFVLDAWGQGTLVTVSS
# VL: DIQMTQSPSSLSASVGDRVTITCKASQSINRYLHWYQQKPGKAPKLLIYNANGLQTGVPSRFSGSGSGTDFTLTISSLQPEDFATYYCLQHNTWPDTFGGGTKVEIKR
# modifications: vc6780 linker-payload on cysteine residues after partial reduction; sites not specified
# notes: Antibody-drug conjugate of hu28
# B2: parental rat clone 75 (r75) (antibody, V domains shown)
# VH: QVKLLQSGAALVKPGASVKMSCKASGYAFTDYWVTWVKQSHGKSLEWIGEISPNSGGTNFNEKFKGKATLTVDKSTSTAYMELSRLTSEDSAIYYCTRGEIRYNWFAYWGQGTLVTVSS
# VL: NIVMTQSPKSMSISVGDRVTMNCKASQNVGNNIAWYQQKPGQSPKLLIYYASNRYTGVPDRFTGGGYGTDFTLTINSMQAEDAAFYYCQRLYNSPFTFGSGTKLEIK
# notes: Rat monoclonal antibody from hybridoma, tested as hybridoma supernatant
# B3: hu75-vc6780 (Notch3-75-v1913-hG1-(C)_mcValCitPABC-#112) (antibody, human IgG1, kappa, V domains shown)
# VH: EVQLVESGGGLVQPGGSLRLSCAASGYAFTDYWMTWVRQAPGKGLEWVAEISPNSGGTNFNEKFKGRFTISVDNAKNSLYLQMNSLRAEDTAVYYCARGEIRYNWFAYWGQGTLVTVSS
# VL: DIQMTQSPSSLSASVGDRVTITCKASQNVGNNIAWYQQKPGKAPKLLIYYASNRYTGVPSRFSGSGYGTDFTLTISSLQPEDFATYYCQRLYNSPFTFGGGTKVEIKR
# modifications: vc6780 linker-payload on cysteine residues after partial reduction; sites not specified
# notes: Antibody-drug conjugate of hu75
# B4: hu75 (humanized r75 variant VH1.9/VL1.3) (antibody, human IgG1, kappa, V domains shown)
# VH: B3 VH
# VL: B3 VL
# notes: Human IgG1/kappa; also called hu75 VH1.9/VL1.3; hu75 VH1.9/V1.3
# B5: hu75-vc0101 (Notch3-75-v1913-hG1-(C)_mcValCitPABC-#54) (antibody, human IgG1, kappa, V domains shown)
# VH: B3 VH
# VL: B3 VL
# modifications: vc0101 linker-payload on cysteine residues after partial reduction; sites not specified
# notes: as for B3
# B6: rat-human chimeric antibody 28 (ch28) (antibody, V domains shown)
# VH: EVQLVESGGGLVQPGRSLTLSCVASGFTFRDYGMTWIRQAPGKGLTWVAYISSGSNYIYYAEAVKGRFTISRDNAKNTLYLQMTSLRSEDTALYFCTRRGPFVLDAWGQGASVTVSS
# VL: DIQMTQSPSFLSASVGDRVTINCKASQSINRYLHWFQQKLGEAPKLLIYNANGLQTGIPSRFSGSGSGTDFTLTISSLQSEDVATYFCLQHNTWPDTFGAGTKLELK
# notes: also called ch28-hIgG1; ch28-hulgG1
# How the values were obtained:
# [1] = molecular target: T4, full-length human Notch3 expressed on the cell surface (human, UniProt Q9UM47 40-2321); experiment: cell-based or functional assay
# T4 sequence (Q9UM47 40-2321): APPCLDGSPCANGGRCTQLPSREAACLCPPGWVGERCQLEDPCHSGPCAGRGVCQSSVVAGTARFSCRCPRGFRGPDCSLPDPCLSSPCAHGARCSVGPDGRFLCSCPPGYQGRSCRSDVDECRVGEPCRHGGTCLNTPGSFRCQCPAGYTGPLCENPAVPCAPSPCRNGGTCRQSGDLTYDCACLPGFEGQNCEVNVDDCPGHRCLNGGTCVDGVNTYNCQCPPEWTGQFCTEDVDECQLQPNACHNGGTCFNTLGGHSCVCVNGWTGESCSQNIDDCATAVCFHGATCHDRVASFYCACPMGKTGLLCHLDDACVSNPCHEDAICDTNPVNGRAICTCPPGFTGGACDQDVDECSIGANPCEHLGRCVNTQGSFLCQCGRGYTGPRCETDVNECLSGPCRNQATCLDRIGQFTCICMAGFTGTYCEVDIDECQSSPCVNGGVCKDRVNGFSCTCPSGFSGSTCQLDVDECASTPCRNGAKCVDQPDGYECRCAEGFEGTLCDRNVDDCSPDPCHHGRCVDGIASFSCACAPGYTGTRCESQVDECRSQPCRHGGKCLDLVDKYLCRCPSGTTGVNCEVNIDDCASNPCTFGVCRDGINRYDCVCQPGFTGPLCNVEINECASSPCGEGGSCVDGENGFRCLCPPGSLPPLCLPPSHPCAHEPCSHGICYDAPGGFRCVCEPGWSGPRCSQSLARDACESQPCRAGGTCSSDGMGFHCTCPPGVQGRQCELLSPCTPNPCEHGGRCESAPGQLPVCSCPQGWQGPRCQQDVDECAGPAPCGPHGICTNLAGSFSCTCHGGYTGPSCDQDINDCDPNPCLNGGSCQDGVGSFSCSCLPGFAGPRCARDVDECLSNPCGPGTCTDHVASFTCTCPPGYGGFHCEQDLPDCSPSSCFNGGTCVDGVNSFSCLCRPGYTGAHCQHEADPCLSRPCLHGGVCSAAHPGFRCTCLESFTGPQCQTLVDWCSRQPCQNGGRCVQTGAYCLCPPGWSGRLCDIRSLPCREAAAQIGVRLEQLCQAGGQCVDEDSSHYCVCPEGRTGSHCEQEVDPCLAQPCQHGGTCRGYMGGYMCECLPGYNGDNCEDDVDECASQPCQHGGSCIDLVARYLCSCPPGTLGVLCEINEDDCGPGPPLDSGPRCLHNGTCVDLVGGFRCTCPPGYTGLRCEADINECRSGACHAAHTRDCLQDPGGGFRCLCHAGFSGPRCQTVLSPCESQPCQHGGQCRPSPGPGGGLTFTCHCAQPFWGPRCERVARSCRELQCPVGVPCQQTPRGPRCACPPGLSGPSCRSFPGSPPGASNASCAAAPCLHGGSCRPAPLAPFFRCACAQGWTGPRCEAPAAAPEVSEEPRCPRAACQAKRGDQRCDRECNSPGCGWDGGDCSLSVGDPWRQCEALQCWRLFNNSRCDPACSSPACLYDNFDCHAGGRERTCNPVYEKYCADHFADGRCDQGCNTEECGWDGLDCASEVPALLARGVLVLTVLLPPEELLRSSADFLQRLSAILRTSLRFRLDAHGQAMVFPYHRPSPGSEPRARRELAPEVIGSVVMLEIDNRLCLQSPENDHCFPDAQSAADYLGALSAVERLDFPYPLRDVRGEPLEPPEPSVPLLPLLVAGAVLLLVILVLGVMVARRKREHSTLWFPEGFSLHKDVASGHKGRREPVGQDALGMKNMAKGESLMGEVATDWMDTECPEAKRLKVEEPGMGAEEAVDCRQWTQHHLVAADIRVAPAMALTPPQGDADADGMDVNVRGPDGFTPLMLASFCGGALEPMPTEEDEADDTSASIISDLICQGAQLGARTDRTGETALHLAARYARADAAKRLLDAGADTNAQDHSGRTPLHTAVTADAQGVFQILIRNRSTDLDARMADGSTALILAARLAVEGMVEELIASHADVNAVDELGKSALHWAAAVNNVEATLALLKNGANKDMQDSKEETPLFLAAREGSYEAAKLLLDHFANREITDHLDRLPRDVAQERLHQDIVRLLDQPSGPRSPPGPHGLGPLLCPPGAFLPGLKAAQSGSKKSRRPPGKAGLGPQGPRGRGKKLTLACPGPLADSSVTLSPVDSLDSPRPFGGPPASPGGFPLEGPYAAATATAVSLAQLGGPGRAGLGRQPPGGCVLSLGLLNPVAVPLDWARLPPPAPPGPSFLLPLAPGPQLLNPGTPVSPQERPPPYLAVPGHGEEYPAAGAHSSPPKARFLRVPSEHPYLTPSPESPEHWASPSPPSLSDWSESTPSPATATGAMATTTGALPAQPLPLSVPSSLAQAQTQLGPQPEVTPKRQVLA
# [2] = molecular target: T4, full-length human Notch3 expressed on …; experiment: cell-based or functional assay; remark: listed apart in the source
# [3] = molecular target: T4, full-length human Notch3 expressed on …; experiment: cell-based ELISA, U2OS/hNotch3 cells; SD 0.008
# Description: (§1) On the day of the ELISA, culture media was removed from wells and serially diluted (1:3 in DPBS with calcium chloride and magnesium chloride (Ca/Mg) and 1% BSA) antibody and ADC solutions were applied to the plate. Plates were incubated at room temperature for 2 hours before washed with DPBS with Ca/Mg and 1% BSA. HRP-conjugated secondary antibody was then applied and incubated with cells for 1 hour. Plates were washed with DPBS with Ca/Mg and 1% BSA before being developed with Pico-Chemiluminescent developing kit (Thermal Scientific), and chemiluminescence measurements were performed per manufacturer's instructions. Data plotting and analyses were performed with Microsoft Excel and Graphpad-Prism software.
# [4] = molecular target: T4, full-length human Notch3 expressed on …; experiment: cell-based ELISA, HCC2429 cells; SD 0.034
# Description: as §1
# [5] = molecular target: T4, full-length human Notch3 expressed on …; experiment: cell-based ELISA, MDA-MB-468 cells; SD 0.046
# Description: as §1
# [6] = molecular target: T1, human Notch3 NRR recombinant protein …; experiment: ELISA, recombinant protein, hybridoma supernatant
# [7] = molecular target: T5, full-length mouse Notch3 expressed on the cell surface (mouse, UniProt Q61982 40-2318); experiment: cell-based ELISA, U-2 OS cells over-expressing mouse Notch3
# T5 construct: whole, on cells; Over-expressed on U-2 OS cells; also called U2OS/mNotch3
# T5 sequence (Q61982 40-2318): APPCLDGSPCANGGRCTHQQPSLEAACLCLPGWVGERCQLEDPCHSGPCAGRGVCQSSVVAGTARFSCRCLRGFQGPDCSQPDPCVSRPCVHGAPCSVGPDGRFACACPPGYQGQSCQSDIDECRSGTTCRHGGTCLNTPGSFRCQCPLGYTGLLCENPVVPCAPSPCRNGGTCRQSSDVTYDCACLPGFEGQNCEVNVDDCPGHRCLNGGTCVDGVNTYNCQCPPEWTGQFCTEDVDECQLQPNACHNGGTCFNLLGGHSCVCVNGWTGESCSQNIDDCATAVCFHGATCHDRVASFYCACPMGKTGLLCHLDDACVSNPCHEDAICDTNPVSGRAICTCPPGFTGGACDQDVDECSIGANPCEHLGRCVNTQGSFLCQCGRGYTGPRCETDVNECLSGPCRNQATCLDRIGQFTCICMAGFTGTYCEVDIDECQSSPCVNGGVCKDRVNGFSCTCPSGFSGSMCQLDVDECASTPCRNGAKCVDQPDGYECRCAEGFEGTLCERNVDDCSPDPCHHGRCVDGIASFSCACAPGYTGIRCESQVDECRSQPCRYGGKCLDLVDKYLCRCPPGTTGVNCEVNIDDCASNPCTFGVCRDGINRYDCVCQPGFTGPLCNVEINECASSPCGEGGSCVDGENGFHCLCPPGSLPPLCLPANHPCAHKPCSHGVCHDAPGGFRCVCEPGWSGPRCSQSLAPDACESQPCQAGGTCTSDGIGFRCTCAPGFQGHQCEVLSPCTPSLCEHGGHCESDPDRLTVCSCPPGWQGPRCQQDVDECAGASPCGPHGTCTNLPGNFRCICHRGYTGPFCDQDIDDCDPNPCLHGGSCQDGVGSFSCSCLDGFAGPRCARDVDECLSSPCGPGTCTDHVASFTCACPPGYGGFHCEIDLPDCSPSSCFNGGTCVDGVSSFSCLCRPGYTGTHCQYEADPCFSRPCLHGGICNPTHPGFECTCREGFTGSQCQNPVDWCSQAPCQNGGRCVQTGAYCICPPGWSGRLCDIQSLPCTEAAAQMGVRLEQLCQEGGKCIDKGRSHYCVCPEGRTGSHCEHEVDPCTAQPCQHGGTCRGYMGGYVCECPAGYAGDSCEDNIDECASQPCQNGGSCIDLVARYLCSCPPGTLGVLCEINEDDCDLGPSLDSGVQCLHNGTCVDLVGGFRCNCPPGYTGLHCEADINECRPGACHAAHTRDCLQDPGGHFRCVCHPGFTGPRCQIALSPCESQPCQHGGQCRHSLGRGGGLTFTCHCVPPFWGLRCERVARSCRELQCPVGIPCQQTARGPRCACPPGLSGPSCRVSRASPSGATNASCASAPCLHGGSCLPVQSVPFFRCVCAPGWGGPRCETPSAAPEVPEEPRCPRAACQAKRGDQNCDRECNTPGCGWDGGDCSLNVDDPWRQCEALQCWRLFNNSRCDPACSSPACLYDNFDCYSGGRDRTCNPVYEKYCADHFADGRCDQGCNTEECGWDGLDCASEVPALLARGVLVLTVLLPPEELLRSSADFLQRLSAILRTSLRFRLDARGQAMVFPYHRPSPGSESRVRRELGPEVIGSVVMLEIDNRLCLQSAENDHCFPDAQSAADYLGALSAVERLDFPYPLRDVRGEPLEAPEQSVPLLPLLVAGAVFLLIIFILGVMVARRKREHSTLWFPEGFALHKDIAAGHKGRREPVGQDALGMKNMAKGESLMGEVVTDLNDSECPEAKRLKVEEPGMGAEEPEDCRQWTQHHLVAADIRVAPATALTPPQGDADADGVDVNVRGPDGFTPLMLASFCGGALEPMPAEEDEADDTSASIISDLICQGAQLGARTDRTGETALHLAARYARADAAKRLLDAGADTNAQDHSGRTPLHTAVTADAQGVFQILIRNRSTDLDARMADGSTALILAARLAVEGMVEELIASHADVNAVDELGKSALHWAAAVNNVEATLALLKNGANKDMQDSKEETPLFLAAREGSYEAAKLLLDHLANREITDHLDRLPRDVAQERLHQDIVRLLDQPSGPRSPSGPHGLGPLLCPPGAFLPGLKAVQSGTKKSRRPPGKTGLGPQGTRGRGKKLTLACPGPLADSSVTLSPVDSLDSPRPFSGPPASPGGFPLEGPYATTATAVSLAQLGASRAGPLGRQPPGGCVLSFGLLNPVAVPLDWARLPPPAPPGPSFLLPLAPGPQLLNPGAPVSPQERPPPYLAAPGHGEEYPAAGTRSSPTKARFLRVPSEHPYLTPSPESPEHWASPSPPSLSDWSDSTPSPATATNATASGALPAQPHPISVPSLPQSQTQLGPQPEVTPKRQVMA
# [8] = molecular target: T4, full-length human Notch3 expressed on …; experiment: cell-based ELISA, MDA-MB-468 cells; SD 0.062
# Description: as §1
# [9] = molecular target: T4, full-length human Notch3 expressed on …; experiment: cell-based ELISA, HCC2429 cells; SD 0.063
# Description: as §1
# [10] = molecular target: T4, full-length human Notch3 expressed on …; experiment: cell-based ELISA, U2OS/hNotch3 cells; SD 0.041
# Description: as §1
# [11] = molecular target: T4, full-length human Notch3 expressed on …; experiment: cell-based ELISA, HCC2429 cells; SD 0.053
# Description: as §1
# [12] = molecular target: T4, full-length human Notch3 expressed on …; experiment: cell-based ELISA, U2OS/hNotch3 cells
# Description: (§2) U-2 OS cells stably over-expressing human or mouse full length Notch3 protein on cell surface (hereinafter U2OS/hNotch3 and U2OS/mNotch3, respectively) were plated at 50,000 cells/well in 96 well plates (white opaque, BD/VWR) the day before ELISA assay. On the day of the ELISA, culture media was removed from wells and serially diluted (1:3 in blocking buffer) antibody solutions were applied to the plate. Plates were incubated at room temperature for 2 hours before being washed with PBS-Mg/Ca. HRP-conjugated secondary antibody was then applied and incubated with cells for 1 hour as described above for recombinant protein ELISA. Plates were washed with PBS-Mg/Ca before being developed with Pico-Chemiluminescent developing kit (Thermal Scientific), and chemiluminescence measurements were performed per manufacturer's instructions. Data plotting and analyses were performed with Microsoft Excel and Graphpad-Prism software.
# [13] = molecular target: T1, human Notch3 NRR recombinant protein …; experiment: SPR (Biacore T100), antibody captured on anti-human IgG-Fc, Notch3 NRR as analyte, 1:1 Langmuir fit
# Description: The kinetic constants of the anti-Notch3 NRR interactions were determined by surface plasmon resonance (Biacore® T100, Biacore Inc., Piscataway, N.J.). Flow cells of a CM5 chip were immobilized with approximately 10,000 response units (RU) of anti-human IgG-Fc (Biacore®) in 10 mM Glycine, pH 5.0 at 10 μl/min for 600 seconds. […] Association of four concentrations of human Notch3 NRR recombinant protein (from 3.7-100 nM) and a zero concentration (running buffer) at 100 μl/min were recorded for 3 minutes in TBS with 1 mM CaCl₂. Dissociation of the complexes was measured for 10 minutes. The surface of the chip was regenerated by injecting 3M MgCl₂ with 3 mM EGTA for 60 seconds at 10 μl/min. Curves obtained after subtraction of the reference and buffer signals were fitted to a 1:1 Langmuir binding model with Biacore® T100 Evaluation Software (Biacore®).
# [14] = molecular target: T4, full-length human Notch3 expressed on …; experiment: cell-based ELISA, MDA-MB-468 cells; SD 0.176
# Description: as §1
# [15] = molecular target: T4, full-length human Notch3 expressed on …; experiment: competition ELISA on U2OS/hNotch3 cells; competitor 0.8 nM biotinylated ch75
# Description: (§3) 96 well cell culture plates were seeded with U2OS/hNotch3 cells (cell culture plate, Co-star). […] After incubation for 2 hours, the plates were washed, as described above, and HRP-conjugated streptavidin (Southern Biotech) diluted 1:5000 in blocking buffer was applied. After incubation with streptavidin for 30 minutes, the plates were washed again before being developed with TMB solution for 10 minutes. […] Data plotting and analyses were performed with Microsoft Excel and Graphpad-Prism software.
# [16] = molecular target: T4, full-length human Notch3 expressed on …; experiment: cell-based ELISA, U2OS/hNotch3 cells; SD 0.160
# Description: as §1
# [17] = molecular target: T4, full-length human Notch3 expressed on …; experiment: cell-based ELISA, U2OS/hNotch3 cells; SD 0.057
# Description: as §1
# [18] = molecular target: T4, full-length human Notch3 expressed on …; experiment: cell-based ELISA, HCC2429 cells; SD 0.115
# Description: as §1
# [19] = molecular target: T4, full-length human Notch3 expressed on …; experiment: cell-based ELISA, MDA-MB-468 cells; SD 0.167
# Description: as §1
# [20] = molecular target: T6, Notch 1-3 NRR domain swap chimera: hd2 of Notch1; A, B, C, hd1 of Notch3 (row 8, unnamed on the sheet) (human); experiment: ELISA: NRR-Fc protein coated at 1 ug/ml, antibody applied at 5 ug/ml, goat anti-human Fc-HRP, TMB, O.D. 450 nM
# T6 construct: part of the NRR
# Description: (§4) After 1 hour of incubation, plates were washed with PBS with 0.9 mM Mg²⁺ and Ca²⁺, before secondary goat anti-human Fc antibody conjugated with HRP were applied and incubated on the plates. After washing again, the plates were developed with TMB and the developing reactions were stopped by adding 0.18M H₂SO₄.
# [21] = molecular target: T2, human Notch1 NRR-Fc; experiment: as above
# Description: as §4
# [22] = molecular target: T7, Notch 1-3 NRR domain swap chimera: A of Notch1; B, C, hd1, hd2 of Notch3 (row 4, unnamed on the sheet) (human); experiment: as above
# T7 construct: part of the NRR
# Description: as §4
# [23] = molecular target: Notch3-NRR (human); experiment: as above
# Description: as §4
# [24] = molecular target: T8, Notch 1-3 NRR domain swap chimera: B of Notch1; A, C, hd1, hd2 of Notch3 (row 5, unnamed on the sheet) (human); experiment: as above
# T8 construct: part of the NRR
# Description: as §4
# [25] = molecular target: T1, human Notch3 NRR recombinant protein …; experiment: ELISA, plate-coated recombinant protein
# Description: (§5) Purified human or mouse Notch3 NRR recombinant proteins were coated on CoStar hi-bound 96-well ELISA plates in 100 μl of PBS with Mg/Ca at a concentration of 1 μg/ml overnight. The plates were washed with PBS-Mg/Ca and blocked for 1 hour with 1% BSA in PBS-Mg/Ca. Blocking solution was decanted from the plate and 1:3 serial dilutions of antibodies in blocking solutions were applied to the plate. After incubation at room temperature for 1 hour, plates were washed again with PBS-Mg/Can before HRP (horse radish peroxidase)-conjugated secondary antibody diluted (1:20,000) in blocking buffer was applied. When the primary antibody tested was rat IgG, the secondary antibody was goat anti-rat IgG Fc (Bethyl Biotech); and when the primary antibody was human IgG, the secondary antibody was goat anti-human IgG Fc (Southern Biotech).
# (§6) After 1 hour incubation with the secondary antibody, plates were washed again, as described above, and TMB substrate solution was added. The developing reaction was allowed for 10 minutes before the stopping solution, 0.18M H₂SO₄, was added.
# [26] = molecular target: T3, mouse Notch3 NRR recombinant protein …; experiment: ELISA, plate-coated recombinant protein
# Description: as §5, §6
# [27] = molecular target: T5, full-length mouse Notch3 expressed on …; experiment: cell-based ELISA, U2OS/mNotch3 cells
# Description: as §2
# [28] = molecular target: T4, full-length human Notch3 expressed on …; experiment: competition ELISA on U2OS/hNotch3 cells; competitor 0.8 nM biotinylated ch28
# Description: as §3
binder,measurement,setting,value
B1,"IC50 of cytotoxicity, MDA-MB-468/hNotch3 cells, control siRNA",[1],2 ng Ab/mL
same,"IC50 of cytotoxicity (MTS viability), HCC2429 cells, repeat 1",[2],148 ng Ab/mL
same,"IC50 of cytotoxicity (MTS viability), HCC2429 cells, repeat 2",[2],2050 ng Ab/mL
same,"IC50 of cytotoxicity (MTS viability), MDA-MB-468/hNotch3 cells, repeat 1",[2],1.3 ng Ab/mL
same,"IC50 of cytotoxicity (MTS viability), MDA-MB-468/hNotch3 cells, repeat 2",[2],3 ng Ab/mL
same,"IC50 of cytotoxicity (MTS viability), OVCAR3 cells",[2],17 ng Ab/mL
same,EC50,[3],236 pM
same,EC50,[4],154 pM
same,EC50,[5],242 pM
B2,O.D. 450 nM,[6],≥ 1 O.D. 450 nM
same,binding result,[7],no binding
B3,"IC50 of cytotoxicity, MDA-MB-468/hNotch3 cells, Notch3 siRNA (reduced Notch3 expression)",[1],7980 ng Ab/mL
same,"IC50 of cytotoxicity, MDA-MB-468/hNotch3 cells, control siRNA",[1],17 ng Ab/mL
same,"IC50 of cytotoxicity (MTS viability), HCC2429 cells, repeat 1",[2],214 ng Ab/mL
same,"IC50 of cytotoxicity (MTS viability), HCC2429 cells, repeat 2",[2],630 ng Ab/mL
same,"IC50 of cytotoxicity (MTS viability), MDA-MB-468/hNotch3 cells, repeat 1",[2],26 ng Ab/mL
same,"IC50 of cytotoxicity (MTS viability), MDA-MB-468/hNotch3 cells, repeat 2",[2],25 ng Ab/mL
same,"IC50 of cytotoxicity (MTS viability), OVCAR3 cells",[2],254 ng Ab/mL
same,EC50,[8],1800 pM
same,EC50,[9],343 pM
same,EC50,[10],723 pM
B4,EC50,[11],335 pM
same,EC50,[12],220 pM
same,Kd,[13],9760 pM
same,EC50,[14],1280 pM
same,EC50,[15],1700 pM
same,EC50,[16],585 pM
B5,"IC50 of cytotoxicity, MDA-MB-468/hNotch3 cells, Notch3 siRNA (reduced Notch3 expression)",[1],3190 ng Ab/mL
same,"IC50 of cytotoxicity, MDA-MB-468/hNotch3 cells, control siRNA",[1],29 ng Ab/mL
same,"IC50 of cytotoxicity (MTS viability), HCC2429 cells, repeat 1",[2],611 ng Ab/mL
same,"IC50 of cytotoxicity (MTS viability), HCC2429 cells, repeat 2",[2],3300 ng Ab/mL
same,"IC50 of cytotoxicity (MTS viability), MDA-MB-468/hNotch3 cells, repeat 1",[2],37 ng Ab/mL
same,"IC50 of cytotoxicity (MTS viability), MDA-MB-468/hNotch3 cells, repeat 2",[2],36 ng Ab/mL
same,"IC50 of cytotoxicity (MTS viability), MDA-MB-468 cells",[2],7000 ng Ab/mL
same,"IC50 of cytotoxicity (MTS viability), OVCAR3 cells",[2],515 ng Ab/mL
same,"IC50 of cytotoxicity (MTS viability), U2OS/hNotch3 cells",[2],523 ng Ab/mL
same,EC50,[17],798 pM
same,EC50,[18],427 pM
same,EC50,[19],2020 pM
B6,EC50,[12],98 pM
same,Kd,[13],610 pM
same,koff,[13],0.000249 s⁻¹
same,kon,[13],409000 M⁻¹ s⁻¹
same,"O.D. 450 nM (ELISA, relative binding capacity)",[20],0.5
same,binding result,[21],no binding (tested: 5 ug/ml)
same,"O.D. 450 nM (ELISA, relative binding capacity)",[22],0.15
same,"O.D. 450 nM (ELISA, relative binding capacity)",[23],2.06
same,"O.D. 450 nM (ELISA, relative binding capacity)",[24],0.54
same,EC50,[25],≤ 1000 pM
same,EC50,[26],≤ 1000 pM
same,EC50,[27],130 pM
same,EC50,[28],3000 pM
